# Patent publication US20230203156A1, “ANTI-MDR1 ANTIBODIES AND USES THEREOF” (KENJOCKETY BIOTECHNOLOGY, INC., priority 2020, published 2023)
# Tests used:
# [1] = tested on: MES-SA DX5 uterine sarcoma; assay: MES-SA DX5 uterine sarcoma model in NSG mice; format: in vivo
# Excerpt: NSG mice were implanted with MES-SA DX5 cells to model uterine sarcoma. Anti-B1 monoclonal antibodies are efficacious in MES-SA DX5 uterine sarcoma model in NSG mice.
# [2] = target: T1, human MDR1 extracellular loops 1 and 4 (ECD1, ECD4) (Homo sapiens, UniProt P08183); assay: Epitope mapping with mutant human MDR1 expressed on 293T cells (flow cytometry); format: binding; conditions: extracellular loop 1 and extracellular loop 4
# T1 construct: FLAG (C); expressed in transfected cells; host or cells: 293T
# Excerpt: To determine binding of anti-MDR1 mAbs listed in Table 2 to the two major extracellular loops 1 and 4 of MDR1, various mutations were constructed to alter or substitute these two loops. To examine binding to cynomolgus extracellular loops, the extracellular loop 1 and/or loop 4 of cynomolgus MDR1 were grafted (with a C-terminal FLAG tag) to substitute for the human loops in the human MDR1 using standard techniques. To examine binding dependence on the normal human loops, MDR1 variants with deletion 79-102 and deletion 82-99 in loop 1 were also generated. Loop 1 is also referred to as ECD1. Loop 4 is also referred to as ECD4. These mutant MDR1 efflux pump variants were expressed on 293T cells using standard methods to generate cells that could be used to distinguish binding of various anti-MDR1 mAbs. The different cells were incubated with different anti-MDR1 mAbs for about 1 hour at 4° C. The cells were washed twice with FACS buffer (PBS containing 0.5% BSA). Alexa647 labeled goat anti-human antibody was added as a secondary antibody, and the samples were incubated on ice for another 1 hour. Samples were washed again and analyzed by flow cytometry.
# FIG. 9 summarizes the findings from preliminary epitope mapping using mutant human MDR1. […] For example, anti-MDR1 mAb B1.129 requires ECD1 and ECD4 for binding to human MDR1. All of the anti-MDR1 antibodies contact ECD4. […] ECD1 refers to the first extracellular domain of human ABCB1, ECD4 refers to the fourth extracellular domain of human ABCB1 and “others” refers to the remainder of the extracellular domains 2-3 and 5-6 of human ABCB1. Only binding to ECD1 and ECD4 was tested.
# [3] = tested on: MES-SA DX5 uterine sarcoma; assay: MES-SA DX5 drug-resistant uterine sarcoma model in nude mice; format: in vivo
# Experimental: (§1) Anti-ABCB1 antibodies B1.129, B1.261, B1.223, B1.225, B1.188, B1.28, and B1.226 were tested for effect on growth of tumors in immunodeficient mice. The following cancer cell lines were used for generating tumor models.
# MES-SA DX5: The multi drug-resistant cell line MES-SA/Dx5 (Sigma. 95051031) was derived from the human uterine sarcoma cell line MES-SA (Sigma Catalogue number. 95051030) which was originally obtained from a tumour from a person at the time of hysterectomy. […] Cross resistance to bleomycin, cisplatin, carmustine, 5-fluorouracil or methotrexate was not observed.
# Nude mice were implanted with MES-SA DX5 cells to model uterine sarcoma. Anti-B1 monoclonal antibodies are efficacious in MES-SA DX5 uterine sarcoma model in nude mice.
# [4] = tested on: A2780 ADR ovarian carcinoma; assay: A2780 ADR drug-resistant ovarian carcinoma model in nude mice; format: in vivo
# Experimental: as §1
# A2780 ADR: The adriamycin-resistant cell line A2780ADR has been developed by exposure of the parent A2780 cell line (Sigma catalogue no. 93112519) to adriamycin. A2780ADR is cross-resistant to melphalan and vinblastine. To retain resistance adriamycin has to be added to the media. The cells grow as a monolayer and in suspension in spinner cultures and are tumorigenic in immune deficient mice. Together with the cisplatin-resistant variant A2780cis these lines only differ in their exposure to a single drug and should facilitate the search for molecular changes responsible for the expression of pleiotropic drug resistance in human ovarian cancer.
# Nude mice were implanted with A2780 ADR cells to model ovarian carcinoma. Anti-B1 monoclonal antibodies are efficacious in A2780 ADR ovarian carcinoma model in nude mice.
molecule,measurement,setting,value
"B1.223: anti-MDR1 antibody, Mouse; VH SEQ ID NO:102, VL SEQ ID NO:104 (antibody, listed as Mus musculus, V domains shown) VH: EVKLVESGGALVKPGGSLKLSCAASGFTFSNYAMSWVRQTPEKRLEWVATISSGGSYTYYPDSVKGRFTISRDNAKTTLYLQMSGLRSEDTALYYCAKFSNYGRFASWGQGTLVTVSS VL: DIQMIQSPLSLPVSLGDQASISCRSSQSIVHSSGNTYLEWYLQKPGQSPRLLIYKVSNRFFGVPDRISGSGSGTDFTLRISRVEAEDLGVYYCFQGSHVPYTFGGGTKLELK",sensitization of MES-SA DX5 uterine sarcoma to paclitaxel,[1],sensitizes
same,epitope on human MDR1,[2],bind to an epitope comprising extracellular loop 1 and extracellular loop 4
same,"tumor volume / tumor growth, single agent","[3]; MES-SA DX5, nude mice, antibody as a single agent",decreased tumor volume
same,"tumor volume / tumor growth, in combination with paclitaxel","[3]; MES-SA DX5, nude mice, antibody plus paclitaxel",decreased tumor volume
same,sensitization of MES-SA DX5 uterine sarcoma to paclitaxel,[3]; MES-SA DX5 tumors in vivo,sensitized
same,"tumor volume, single agent",[4]; antibody as a single agent,decreased tumor volume
same,"tumor volume, in combination with paclitaxel",[4]; antibody plus paclitaxel,decreased tumor volume
